# Data published in patent publication US11708423B2, “Chimeric engulfment receptor molecules and methods of use” (CERO THERAPEUTICS, INC., priority 2017, dated 2023).
# “Also recorded” adds a separate entry of the source.
# B1: CER123: Tim4 binding and transmembrane domains, TLR2 primary and TRAF6 secondary signaling domains; SEQ ID NO:150 (protein)
# chain: MSKGLLLLWLVTELWWLYLTPAASEDTIIGFLGQPVTLPCHYLSWSQSRNSMCWGKGSCPNSKCNAELLRTDGTRIISRKSTKYTLLGKVQFGEVSLTISNTNRGDSGVYCCRIEVPGWFNDVKKNVRLELRRATTTKKPTTTTRPTTTPYVTTTTPELLPTTVMTTSVLPTTTPPQTLATTAFSTAVTTCPSTTPGSFSQETTKGSAFTTESETLPASNHSQRSMMTISTDIAVLRPTGSNPGILPSTSQLTTQKTTLTTSESLQKTTKSHQINSRQTILIIACCVGFVLMVLLFLAFLHRFHGLWYMKMMWAWLQAKRKPRKAPSRNICYDAFVSYSERDAYWVENLMVQELENFNPPFKLCLHKRDFIPGKWIIDNIIDSIEKSHKTVFVLSENFVKSEWCKYELDFSHFRLFDENNDAAILILLEPIEKKAIPQRFCKLRKIMNTKTYLEWPMDEAQREGFWVNLRAAIKSMSLLNCENSCGSSQSESDCCVAMASSCSAVTKDDSVGGTASTGNLSSSFMEEIQGYDVEFDPPLESKYECPICLMALREAVQTPCGHRFCKACIIKSIRDAGHKCPVDNEILLENQLFPDNFAKREILSLMVKCPNEGCLHKMELRHLEDHQAHCEFALMDCPQCQRPFQKFHINIHILKDCPRRQVSCDNCAASMAFEDKEIHDQNCPLANVICEYCNTILIREQMPNHYDLDCPTAPIPCTFSTFGCHEKMQRNHLARHLQENTQSHMRMLA
# modifications: CER123 protein
# Experiments:
# [1] = test system: HCC159 lung adenocarcinoma cells; test: MTT viability of HCC159 cells co-cultured with CER T cells and Osimeritinib; format: cell-based
# Description: HCC159 lung adenocarcinoma cells harboring an EGFR mutation were co-cultured with CER123- or CER126-expressing CD4+ T cells with increasing concentrations of Osimeritinib (0.1 nM, 1 nM, or 5 nM). Mock transduced (vector only) T cells were used as control. After 48 hours of co-culture at effector: target cell ratios at 1:1, 2:1 or 5:1 in the presence of drug, T cells were washed away, and the number of viable HCC159 cells was quantified using a calorimetric MTT assay. Cell viability experiments were performed in triplicates and presented as % of control with (FIG. 48A).
# ALK+A549 cells = test: LDH cytotoxicity assay, A549 ALK+ cells, 18 hours co-culture; format: cell-based; conditions: Crizotinib or Alectinib 0, 2500, 3700 nM; E:T 2:1 or 5:1; 18 hours
# Description: An ELM4-ALK translocation was introduced into A549 cells. […] Assays were performed with purified tEGFR^+ (transduction marker), CER-expressing T cells 7 days after activation using CD3 & CD28 microbeads at effector: target cell ratios of 2:1 or 5:1. Mock T cells were transduced with vector alone and used as control. After 18 hours of co-culture, bulk supernatants were evaluated using a LDH cytoxicity assay indicating cell killing (FIGS. 65A-B).
# HPV E7 oncoproteins = test: Antigen cross-presentation, E6/E7 TCR NFAT-luciferase Jurkat reporter; format: cell-based, human; conditions: CD4+ and CD8+ T cells after phagocytosis of SCC152 HPV+ cells, compared to mock
# From the text: CD4+ and CD8+CER-expressing T cell lines were established from human PBMCs. Purified T cells were transduced with lentivirus encoding CER123 (SEQ ID NO:150) and truncated EGFR (transduction marker), after activation with CD3 & CD28 microbeads, and then expanded in medium containing IL-7, IL-15, and IL-2 for 5 days. The percentage of tEGFR+ T cells ranged between 40-60%.
# A Jurkat cell line with a stable integration of an NFAT-inducible Luciferase reporter construct was utilized to study T cell responses. Human E6- and E7-specific engineered TCRs were transduced into Jurkat NFAT reporter cell lines to characterize NFAT activation upon co-culture with engineered CERs.
# For assessing MHC-I cross-presentation, SCC152 HPV^+ cells were co-cultured overnight with CER123-expressing CD4+ and CD8+ T cells or mock-transduced (vector only) T cells in the presence of T cells expressing an E7-specific TCR. […] NFAT activation was assessed at serial time points (0, 6, 12, 24, and 72 hrs) by measuring luciferase activity in cell culture supernatants. […] Induction of E711-19 —specific Jurkat T cells were quantified by luminescence of NFAT signaling at indicated time points and compared to Mock (vector-alone) transduced T cells (FIG. 87).
# H1975 NSCLC cells = test: LDH-based cytotoxicity, H1975 cells, 18 hours co-culture; format: cell-based; conditions: Osimeritinib 0, 500, 1000 nM, E:T 2:1 or 5:1
# Description: H1975 NSCLC cells were co-cultured with CER123- or CER126-expressing CD4+ T cells with increasing concentrations of Osimeritnib (0, 500 nM, or 1000 nM). Mock-transduced (vector only) T cells were used as control. Assays were performed using CER modified T cells purified by FACS using an EGFR specific antibody 7 days after activation using CD3 & CD28 microbeads. CER modified T cells and H1975 cells were co-cultured at effector:target cell ratios of 2:1 or 5:1. After 18 hours of co-culture, bulk supernatants were evaluated using LDH-based cytotoxicity assay.
# [2] = test system: HCC159 lung adenocarcinoma cells; test: LDH-based cytotoxicity, HCC159 cells; format: cell-based; conditions: Osimeritinib 0, 1, 5 nM; E:T 2:1 or 5:1; 18 hours
# Description: HCC159 lung adenocarcinoma cells were co-cultured with CER123- or CER126-expressing CD4+ T cells with increasing concentrations of Osimeritnib (0, 1 nM, 5 nM). After 18 hours of co-culture, bulk supernatants were evaluated using a LDH-based cytotoxicity assay. T cells assays were performed using purified, EGFR^+ (transduction marker), CER modified T cells 7 days after activation using CD3 & CD28 microbeads at effector:target cell ratios of 2:1 or 5:1. Control “Mock” T cells were transduced with vector alone. […] Bulk supernatants were also analyzed after 18 hours of co-culture for Interferon Gamma (IFNγ) secretion (FIG. 50). Control “Mock” T cells were transduced with vector alone.
molecule,measurement,setting,value
B1,bright field images of HCC159 co-culture,"[1]; 1 nM Osimeritinib, vs control T cells",loss of HCC159 cells
same,growth/viability of HCC159 cells (MTT),"[1]; Osimeritinib 0.1, 1, 5 nM, E:T 1:1, 2:1, 5:1, 48 hours",dose-dependent target cell killing responses; also recorded: synergistically suppressed
same,cell killing of A549 ALK+ cells (LDH),ALK+A549 cells,dose-dependent inducible cytokine secretion and cell killing responses
same,cross-presentation of HPV E7 oncoproteins (NFAT activation),HPV E7 oncoproteins,enhanced cross-presentation efficiency of HPV E7 oncoproteins
same,cell killing of H1975 cells (LDH),H1975 NSCLC cells,inducible cell killing responses
same,cell killing of HCC159 cells (LDH),[2],inducible cell killing responses
